Read-outs that look alike come from different tables or passages of the source. Values belong to the binder of their own block, whether it stands above or below them.
Experiments:
[1] = molecular target: T1, rat TIMP-1 (rat, UniProt P30120 24-217); assay: cell-based or functional assay
[2] = molecular target: T2, human TIMP-1 (human, UniProt P01033 24-207); assay: SPR (BIAcore), TIMP-1 coupled to chip, monovalent Fab
T2 construct: Purified protein, coupled to the BIAcore chip or in solution in the protease assay
Description: (§1) For affinity determination, monomeric fractions of affinity and SEC purified Fab fragments or purified IgG1 molecules were used. All experiments were conducted in HBS buffer at a flow rate of 20 μl/min at 25° C. on a BIAcore™ instrument. Antigens in 100 mM sodium acetate pH 5.0 were coupled to a CM 5 sensor chip using standard EDC-NHS coupling chemistry. […] All sensograms were fitted globally using BIA evaluation software. For monovalent Fab fragments a monovalent fit (Langmuir binding) and for IgGs a bivalent fit was applied.

[3] = molecular target: T1, rat TIMP-1; assay: as above
Description: as §1

[4] = molecular target: T2, human TIMP-1; assay: cell-based or functional assay
[5] = molecular target: T1, rat TIMP-1; assay: cell-based or functional assay; remark: listed apart in the source
[6] = molecular target: T1, rat TIMP-1; assay: SPR (BIAcore), TIMP-1 coupled to chip, monovalent Fab; remark: listed apart in the source
Description: as §1

[7] = molecular target: T1, rat TIMP-1; assay: cell-based or functional assay; remark: listed apart in the source
[8] = molecular target: T1, rat TIMP-1; assay: cell-based or functional assay; remark: listed apart in the source
[9] = molecular target: T1, rat TIMP-1; assay: SPR (BIAcore), rat TIMP-1 on chip, monovalent Fab
Description: as §1

[10] = molecular target: T1, rat TIMP-1; assay: cell-based or functional assay; remark: listed apart in the source
[11] = molecular target: T2, human TIMP-1; assay: cell-based or functional assay; remark: listed apart in the source
[12] = molecular target: T2, human TIMP-1; assay: SPR (BIAcore), TIMP-1 coupled to chip, monovalent Fab; remark: listed apart in the source
Description: as §1

[13] = molecular target: T2, human TIMP-1; assay: as above; remark: listed apart in the source
Description: as §1

[14] = molecular target: T2, human TIMP-1; assay: cell-based or functional assay; remark: listed apart in the source
[15] = molecular target: T2, human TIMP-1; assay: cell-based or functional assay; remark: listed apart in the source
[16] = molecular target: T2, human TIMP-1; assay: SPR (BIAcore), TIMP-1 coupled to chip, monovalent Fab; remark: listed apart in the source
Description: as §1

T1 sequence (P30120 24-217 limits assumed): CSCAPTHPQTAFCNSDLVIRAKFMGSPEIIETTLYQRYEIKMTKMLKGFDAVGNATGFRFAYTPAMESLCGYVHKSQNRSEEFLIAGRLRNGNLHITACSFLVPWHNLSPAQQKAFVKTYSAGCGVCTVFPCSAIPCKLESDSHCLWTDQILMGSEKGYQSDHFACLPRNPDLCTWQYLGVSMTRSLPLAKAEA

Kd [13]: 0.6 nM
IC50 in human protease assay (modified, decreased TIMP-1 and MMP-1) [14]: 0.2 nM
IC50 in human protease assay (modified, 0.4 nM TIMP-1 and MMP-1) [15]: 0.2 nM
Kd [16]: 0.6 nM
B9: MS-BW-44-6 (Fab, V domains shown)
VH: QVQLVESGGGLVQPGGSLRLSCAASGFTFNSYAMSWVRQAPGKGLEWVSVISGNGSNTYYADSVKGRFTISRDNSKNTLYLQMNSLRAEDTAVYYCARFLDIWGQGTLVTVSS
VL: DIALTQPASVSGSPGQSITISCTGTSSDVGGYNYVSWYQQHPGKAPKLMIYDVSNRPSGVSNRFSGSKSGNTASLTISGLQAEDEADYYCQSYDFVRFMVFGGGTKLTVLG
notes: Fab; MS-BW-44 with modified HCDR1 and HCDR2 cassettes

Kd [13]: 0.3 nM
IC50 in human protease assay (modified, decreased TIMP-1 and MMP-1) [14]: 0.2 nM
B10: MS-BW-44-2-15 (Fab, V domains shown)
VH: QVQLVESGGGLVQPGGSLRLSCAASGFTFSSYAMSWVRQAPGKGLEWVSGISGNGVLIFYADSVKGRFTISRDNSKNTLYLQMNSLRAEDTAVYYCARWFDHWGQGTLVTVSS
VL: DIALTQPASVSGSPGQSITISCTGTSSDVGGYNYVSWYQQHPGKAPKLMIYDVSNRPSGVSNRFSGSKSGNTASLTISGLQAEDEADYYCQSYDFVRFMVFGGGTKLTVLG
notes: Fab

Kd [3]: 2 nM
IC50 in rat protease assay [7]: 3 nM
B11: MS-BW-54-1 (Fab, V domains shown)
VH: QVQLVQSGAEVKKPGESLKISCKGSGYSFTSYWIGWVRQMPGKGLEWMGIIYPGDSDTRYSPSFQGQVTISADKSISTAYLQWSSLKASDTAMYYCARYYGFEYDLLFDNWGQGTLVTVSS
VL: DIALTQPASVSGSPGQSITISCTGTSSDLGGYNYVSWYQQHPGKAPKLMIYAGNNRPSGVSNRFSGSKSGNTASLTISGLQAEDEADYYCQAYDSSGYPVFGGGTKLTVLG
notes: Fab from LCDR1, -2, -3 optimization of MS-BW-54

Kd [13]: 0.5 nM
IC50 in human protease assay (modified, decreased TIMP-1 and MMP-1) [14]: 0.3 nM
B14: MS-BW-44-2-16 (Fab, V domains shown)
VH: QVQLVESGGGLVQPGGSLRLSCAASGFTFSSYAMSWVRQAPGKGLEWVSGISGNGVLIFYADSVKGRFTISRDNSKNTLYLQMNSLRAEDTAVYYCARWFDVWGQGTLVTVSS
VL: DIALTQPASVSGSPGQSITISCTGTSSDVGGYNYVSWYQQHPGKAPKLMIYDVSNRPSGVSNRFSGSKSGNTASLTISGLQAEDEADYYCQSYDFVRFMVFGGGTKLTVLG
notes: Fab

IC50 in rat protease assay [1]: > 300 nM
Kd [2]: ~3 nM
Kd [3]: ~353 nM
IC50 in human protease assay [4]: ~11 nM
IC50 in rat protease assay [5]: > 300 nM
Kd [6]: ~353 nM
B15: MS-BW-38 (Fab, V domains shown)
VH: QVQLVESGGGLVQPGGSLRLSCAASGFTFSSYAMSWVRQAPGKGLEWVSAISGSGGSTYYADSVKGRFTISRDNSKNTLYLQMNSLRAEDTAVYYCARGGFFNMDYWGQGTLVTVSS
VL: DIALTQPASVSGSPGQSITISCTGTSSDVGGYNYVSWYQQHPGKAPKLMIYDVSNRPSGVSNRFSGSKSGNTASLTISGLQAEDEADYYCQSYDFTYGSVFGGGTKLTVLG
notes: Fab, FLAG + Strep-tag II; not tied by name

Kd [13]: 0.5 nM
IC50 in human protease assay (modified, decreased TIMP-1 and MMP-1) [14]: 0.4 nM
IC50 in human protease assay (modified, 0.4 nM TIMP-1 and MMP-1) [15]: 0.4 nM
Kd [16]: 0.5 nM
B17: MS-BW-44-2 (Fab, V domains shown)
VH: QVQLVESGGGLVQPGGSLRLSCAASGFTFSSYAMSWVRQAPGKGLEWVSGISGNGVLIFYADSVKGRFTISRDNSKNTLYLQMNSLRAEDTAVYYCARFLDIWGQGTLVTVSS
VL: DIALTQPASVSGSPGQSITISCTGTSSDVGGYNYVSWYQQHPGKAPKLMIYDVSNRPSGVSNRFSGSKSGNTASLTISGLQAEDEADYYCQSYDFVRFMVFGGGTKLTVLG
notes: Fab; MS-BW-44 with a modified HCDR2 cassette

IC50 in rat protease assay [1]: > 100 nM
Kd [3]: ~108 nM
IC50 in rat protease assay [5]: > 100 nM
Kd [6]: ~108 nM
B18: MS-BW-39 (Fab, V domains shown)
VH: QVQLVQSGAEVKKPGSSVKVSCKASGGTFSSYAISWVRQAPGQGLEWMGGIIPIFGTANYAQKFQGRVTITADESTSTAYMELSSLRSEDTAVYYCARGYIPYHLFDYWGQGTLVTVSS
VL: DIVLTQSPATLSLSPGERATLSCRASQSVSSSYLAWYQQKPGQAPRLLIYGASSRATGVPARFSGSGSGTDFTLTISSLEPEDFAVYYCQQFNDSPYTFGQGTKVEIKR
notes: as for B15

The next lines start with the binder.

B1: MS-BW-21 (Fab, V domains shown)
VH: QVQLVQSGAEVKKPGSSVKVSCKASGGTFSSYAISWVRQAPGQGLEWMGGIIPIFGTANYAQKFQGRVTITADESTSTAYMELSSLRSEDTAVYYCARYIGYTNVMDIRPGFYLDYWGQGTLVTVSS
VL: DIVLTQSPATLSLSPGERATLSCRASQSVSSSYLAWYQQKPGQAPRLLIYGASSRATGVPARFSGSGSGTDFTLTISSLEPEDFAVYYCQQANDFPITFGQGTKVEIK
IC50 in rat protease assay [1]: 67 nM
Kd [2]: 520 nM
Kd [3]: 36 nM
IC50 in human protease assay [4]: > 300 nM
IC50 in rat protease assay [5]: 67 nM
Kd [6]: 36 nM

B2: MS-BW-17-1 (Fab, V domains shown)
VH: QVQLVQSGAEVKKPGESLKISCKGSGYSFTSYWIGWVRQMPGKGLEWMGIIYPGDSDTRYSPSFQGQVTISADKSISTAYLQWSSLKASDTAMYYCARLTNYFDSIYYDHWGQGTLVTVSS
VL: DIALTQPASVSGSPGQSITISCTGTSSDVGGYNYVSWYQQHPGKAPKLMIYDVSNRPSGVSNRFSGSKSGNTASLTISGLQAEDEADYYCQAFDVAPNGKVFGGGTKLTVLG
notes: Fab from LCDR3 optimization of MS-BW-17; also called MS-BW-17-1 Fab; BW-17-1 Fab
Kd [3]: 0.8 nM
IC50 in rat protease assay [7]: 1.6 nM
IC50 (50 % reversal of the inhibition of rat MMP-13 by rat TIMP-1, fluorogenic peptide substrate assay) [8]: ~1.3 nM

B3: MS-BW-17 (Fab, V domains shown)
VH: QVQLVQSGAEVKKPGESLKISCKGSGYSFTSYWIGWVRQMPGKGLEWMGIIYPGDSDTRYSPSFQGQVTISADKSISTAYLQWSSLKASDTAMYYCARLTNYFDSIYYDHWGQGTLVTVSS
VL: DIALTQPASVSGSPGQSITISCTGTSSDVGGYNYVSWYQQHPGKAPKLMIYDVSNRPSGVSNRFSGSKSGNTASLTISGLQAEDEADYYCQSYDPSHPSKVFGGGTKLTVLG
notes: as for B15
IC50 in rat protease assay [1]: 11 nM
Kd [3]: 13 nM
Kd [6]: 13 nM
IC50 in rat protease assay [7]: 11 nM

B4: MS-BW-14 (Fab, V domains shown)
VH: QVQLVQSGAEVKKPGSSVKVSCKASGGTFSSYAISWVRQAPGQGLEWMGGIIPIFGTANYAQKFQGRVTITADESTSTAYMELSSLRSEDTAVYYCARWSDQSYHYYWHPYFDVWGQGTLVTVSS
VL: DIVLTQPPSVSGAPGQRVTISCSGSSSNIGSNYVSWYQQLPGTAPKLLIYDNNQRPSGVPDRFSGSKSGTSASLAITGLQSEDEADYYCQSWDLEPYVFGGGTKLTVLG
notes: Fab, FLAG + Strep-tag II; not tied by name; also called MS-BW-14 Fab
Kd [9]: 13 nM
IC50 (50 % reversal of the inhibition of rat MMP-13 by rat TIMP-1, fluorogenic peptide substrate assay) [10]: ~11 nM
IC50 in rat protease assay [1]: 14 nM
Kd [3]: 10 nM
Kd [6]: 10 nM
IC50 in rat protease assay [7]: 14 nM

B5: MS-BW-25 (Fab, V domains shown)
VH: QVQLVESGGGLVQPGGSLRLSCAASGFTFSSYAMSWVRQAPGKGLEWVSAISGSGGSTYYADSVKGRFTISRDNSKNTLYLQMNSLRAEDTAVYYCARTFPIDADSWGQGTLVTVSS
VL: DIALTQPASVSGSPGQSITISCTGTSSDVGGYNYVSWYQQHPGKAPKLMIYDVSNRPSGVSNRFSGSKSGNTASLTISGLQAEDEADYYCQSYDFINVIVFGGGTKLTVLG
notes: as for B15
Kd [2]: 25 nM
Kd [3]: 4520 nM
IC50 in human protease assay [11]: 115 nM
IC50 in human protease assay [4]: 115 nM
IC50 in rat protease assay [5]: > 300 nM
Kd [12]: 25 nM

B6: MS-BW-54 (Fab, V domains shown)
VH: QVQLVQSGAEVKKPGESLKISCKGSGYSFTSYWIGWVRQMPGKGLEWMGIIYPGDSDTRYSPSFQGQVTISADKSISTAYLQWSSLKASDTAMYYCARYYGFEYDLLFDNWGQGTLVTVSS
VL: DIALTQPASVSGSPGQSITISCTGTSSDVGGYNYVSWYQQHPGKAPKLMIYDVSNRPSGVSNRFSGSKSGNTASLTISGLQAEDEADYYCQSYDISGYPVFGGGTKLTVLG
notes: as for B15
IC50 in rat protease assay [1]: 7 nM
Kd [3]: 9 nM
Kd [6]: 9 nM
IC50 in rat protease assay [7]: 7 nM

B7: MS-BW-27 (Fab, V domains shown)
VH: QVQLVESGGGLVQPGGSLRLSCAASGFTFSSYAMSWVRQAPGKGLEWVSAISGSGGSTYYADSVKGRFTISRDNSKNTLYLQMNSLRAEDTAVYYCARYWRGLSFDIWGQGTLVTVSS
VL: DIALTQPASVSGSPGQSITISCTGTSSDVGGYNYVSWYQQHPGKAPKLMIYDVSNRPSGVSNRFSGSKSGNTASLTISGLQAEDEADYYCQSYDFYKFNVFGGGTKLTVLG
notes: as for B15
Kd [2]: ~74 nM
Kd [12]: ~74 nM

B8: MS-BW-26 (Fab, V domains shown)
VH: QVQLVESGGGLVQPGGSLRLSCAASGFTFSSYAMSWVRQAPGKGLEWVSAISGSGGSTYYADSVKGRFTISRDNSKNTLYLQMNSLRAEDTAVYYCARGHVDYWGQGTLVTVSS
VL: DIALTQPASVSGSPGQSITISCTGTSSDVGGYNYVSWYQQHPGKAPKLMIYDVSNRPSGVSNRFSGSKSGNTASLTISGLQAEDEADYYCQSYDFVRFMVFGGGTKLTVLG
notes: as for B15
Kd [12]: ~100 nM

B12: MS-BW-1 (Fab, V domains shown)
VH: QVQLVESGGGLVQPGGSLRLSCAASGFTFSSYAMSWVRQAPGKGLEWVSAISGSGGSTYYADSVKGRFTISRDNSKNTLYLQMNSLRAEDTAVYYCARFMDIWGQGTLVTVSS
VL: DIALTQPASVSGSPGQSITISCTGTSSDVGGYNYVSWYQQHPGKAPKLMIYDVSNRPSGVSNRFSGSKSGNTASLTISGLQAEDEADYYCQSYDYQQFTVFGGGTKLTVLG
notes: as for B15
IC50 in human protease assay [11]: > 100 nM
Kd [12]: 65 nM

B13: MS-BW-2 (Fab, V domains shown)
VH: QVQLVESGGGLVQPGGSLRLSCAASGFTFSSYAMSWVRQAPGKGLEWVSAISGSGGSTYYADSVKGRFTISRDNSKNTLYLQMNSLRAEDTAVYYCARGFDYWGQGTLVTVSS
VL: DIALTQPASVSGSPGQSITISCTGTSSDVGGYNYVSWYQQHPGKAPKLMIYDVSNRPSGVSNRFSGSKSGNTASLTISGLQAEDEADYYCQSYDFKTYLVFGGGTKLTVLG
notes: as for B15
IC50 in human protease assay [11]: > 100 nM
Kd [12]: 180 nM

B16: MS-BW-28 (Fab, V domains shown)
VH: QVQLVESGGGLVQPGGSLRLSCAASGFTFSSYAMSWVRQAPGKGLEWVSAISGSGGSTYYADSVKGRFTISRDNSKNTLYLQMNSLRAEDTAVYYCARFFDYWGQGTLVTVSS
VL: DIALTQPASVSGSPGQSITISCTGTSSDVGGYNYVSWYQQHPGKAPKLMIYDVSNRPSGVSNRFSGSKSGNTASLTISGLQAEDEADYYCQSYDFRRFSVFGGGTKLTVLG
notes: as for B15
IC50 in human protease assay [11]: 22 nM
Kd [12]: 10 nM
